Biological target: Gα15 (mammalian)

clamp current on perfusion with 4-methyl phenol, voltage clamp of Xenopus oocytes expressing AgOR1/Gα15: 20 nA
Substance: Anopheles gambiae odorant receptor 1 (from UniProt Q8WTE7)

Source: US20050153368A1
